Reference: patent US20180155451A1 (published 2018)

T1: FcγRIIa H (FcγRIIa type H, His at position 131), extracellular domain with C-terminal His tag (human, UniProt P12318 34-217)
T1 construct: extracellular domain; also called 2aH; FcgRIIa H; not shown: His tag at the C terminus
T1 sequence (looked up): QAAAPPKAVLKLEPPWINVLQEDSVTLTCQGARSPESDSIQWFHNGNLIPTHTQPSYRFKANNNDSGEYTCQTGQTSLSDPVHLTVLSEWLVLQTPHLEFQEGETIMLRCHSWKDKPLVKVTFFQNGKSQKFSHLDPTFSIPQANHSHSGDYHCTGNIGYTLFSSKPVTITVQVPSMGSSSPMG

T2: FcγRIIb, extracellular domain with C-terminal His tag (human, UniProt P31994 43-217)
T2 construct: extracellular domain; also called 2b; FcgRIIb; not shown: His tag at the C terminus
T2 sequence (looked up): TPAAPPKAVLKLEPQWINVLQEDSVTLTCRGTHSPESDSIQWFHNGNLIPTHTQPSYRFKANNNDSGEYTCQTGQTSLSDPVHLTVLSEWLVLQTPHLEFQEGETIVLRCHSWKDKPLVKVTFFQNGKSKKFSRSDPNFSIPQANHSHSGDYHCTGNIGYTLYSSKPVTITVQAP

T3: FcγRIIb extracellular domain with C-terminal His tag (human, UniProt P31994 43-217)
T3 construct: extracellular domain; also called FcgRIIb; 2b; not shown: His tag at the C terminus
T3 sequence (looked up): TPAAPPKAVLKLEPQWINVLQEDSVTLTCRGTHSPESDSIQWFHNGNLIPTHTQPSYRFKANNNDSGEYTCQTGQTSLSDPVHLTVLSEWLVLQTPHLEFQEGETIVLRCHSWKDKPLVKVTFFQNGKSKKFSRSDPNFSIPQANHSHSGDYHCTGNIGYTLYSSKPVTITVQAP


Key:
[1] = molecular target: T1, FcγRIIa H (FcγRIIa type H, His at …); assay: ratio of He/Con_2aH (FcγRIIa H) to He/Con_2b (FcγRIIb), SPR relative binding
Procedure: (§1) The heterodimerized antibodies He Abs in which one of the H chains was introduced with an alteration were assayed for their binding activities to each activating FcγR and inhibitory FcγR according to the method described in Example 4. […] The activating FcγRs in FIGS. 26, 27, 28, and 29 are FcγRIa, FcγRIIa (R), FcγRIIa (H), and FcγRIIIa, respectively.
(§2) Analysis of interaction between objective antibody and the FcγR was carried out using Biacore T100 (GE Healthcare). HBS-EP+ (GE Healthcare) was used as the running buffer, and the measurement temperature was set to 25° C. Chips produced by immobilizing the antigen peptide by the amine coupling method to a Series S Sencor Chip CM5 (GE Healthcare), or alternatively, chips produced by allowing preliminarily biotinylated antigen peptides to interact with and immobilize onto a Series S Sensor Chip SA (certified) (GE Healthcare) were used. Antibodies of interest were captured onto an antigen peptide-immobilized chip, and allowed to interact to each FcγR diluted with running buffer. To regenerate and repeatedly use the chip, the antibodies captured on the chip were washed off by reacting 10 mM glycine-HCl, pH 1.5.

[2] = molecular target: T1, FcγRIIa H (FcγRIIa type H, His at …); assay: SPR (Biacore), antibody captured on antigen-peptide chip, FcγR as analyte; GpH7-A5/GpH7-B3/GpL16-k0 = 100
Procedure: as §1, §2

[3] = molecular target: T2, FcγRIIb, extracellular domain with …; assay: as above
Procedure: as §1, §2

[4] = molecular target: T4, FcγRIIIa extracellular domain with C-terminal His tag (human, UniProt P08637 17-208); assay: SPR; He/Con_3a divided by He/Con_2b (binding to FcγRIIb is the reference)
T4 construct: extracellular domain; also called FcgRIIIa; 3a; not shown: His tag at the C terminus
Procedure: as §2
(§3) The FcγR-binding activity of each antibody was assessed primarily using as an indicator the FcγR-binding activity and dissociation constant for FcγR.

[5] = molecular target: T4, FcγRIIIa extracellular domain with …; assay: SPR (Biacore), antibody captured on antigen peptide chip, FcγR as analyte; relative binding amount
Procedure: as §2, §3

[6] = molecular target: T3, FcγRIIb extracellular domain with …; assay: as above
Procedure: as §2, §3

T4 sequence (P08637 17-208): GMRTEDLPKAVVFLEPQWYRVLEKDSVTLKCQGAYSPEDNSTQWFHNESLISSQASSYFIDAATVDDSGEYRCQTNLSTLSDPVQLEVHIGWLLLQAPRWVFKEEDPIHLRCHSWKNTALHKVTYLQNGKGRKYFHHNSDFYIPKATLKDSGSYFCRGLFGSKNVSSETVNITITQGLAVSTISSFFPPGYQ

| He_2aH/2b (IIaH/IIb ratio) [1] | He/Con_2aH (relative binding activity) [2] | He/Con_2b (relative binding activity) [3] | He_3a/2b (IIIa/IIb) [4] [ratio] | He/Con_3a [5] | He/Con_2b [6] | Binder |
| --- | --- | --- | --- | --- | --- | --- |
| 0.37 | 18.1 % of control | 49.4 % of control | – | – | – | GpH7-A5/GpH7-B3 variant V266_15Y/GpL16-k0 (antibody, human IgG1, kappa, Heterodimerized IgG1 (He Ab); mutation only in the GpH7-B3 chain; also called He Ab V266Y) heavy 1: not shown heavy 2: not shown light: DIVMTQSPLSLPVTPGEPASISCQASESLVHSNRNTYLHWYLQKPGQSPQLLIYKVSNRFSGVPDRFSGSGSGTDFTLKISRVEAEDVGVYYCSQNTHVPPTFGQGTKVEIERTVAAPSVFIFPPSDEQLKSGTASVVCLLNNFYPREAKVQWKVDNALQSGNSQESVTEQDSKDSTYSLSSTLTLSKADYEKHKVYACEVTHQGLSSPVTKSFNRGEC |
| – | – | – | 0.55 | 40.4 % of GpH7-A5/GpH7-B3/GpL16-k0 (=100) | 73.2 % of GpH7-A5/GpH7-B3/GpL16-k0 (=100) | GpH7-A5/GpH7-B3 variant P238_18N/GpL16-k0 (antibody, human IgG1, kappa, Heterodimerized anti-glypican-3 IgG1; the substitution stands in the GpH7-B3 chain only; also called He Ab) heavy 1: not shown heavy 2: not shown light: DIVMTQSPLSLPVTPGEPASISCQASESLVHSNRNTYLHWYLQKPGQSPQLLIYKVSNRFSGVPDRFSGSGSGTDFTLKISRVEAEDVGVYYCSQNTHVPPTFGQGTKVEIERTVAAPSVFIFPPSDEQLKSGTASVVCLLNNFYPREAKVQWKVDNALQSGNSQESVTEQDSKDSTYSLSSTLTLSKADYEKHKVYACEVTHQGLSSPVTKSFNRGEC |
| 0.53 | 43.3 % of control | 82.3 % of control | – | – | – | GpH7-A5/GpH7-B3 variant V266_14T/GpL16-k0 (antibody, human IgG1, kappa, Heterodimerized IgG1 (He Ab); mutation only in the GpH7-B3 chain; also called He Ab V266T) heavy 1: not shown heavy 2: not shown light: DIVMTQSPLSLPVTPGEPASISCQASESLVHSNRNTYLHWYLQKPGQSPQLLIYKVSNRFSGVPDRFSGSGSGTDFTLKISRVEAEDVGVYYCSQNTHVPPTFGQGTKVEIERTVAAPSVFIFPPSDEQLKSGTASVVCLLNNFYPREAKVQWKVDNALQSGNSQESVTEQDSKDSTYSLSSTLTLSKADYEKHKVYACEVTHQGLSSPVTKSFNRGEC |
| – | – | – | 0.51 | 55.8 % of GpH7-A5/GpH7-B3/GpL16-k0 (=100) | 110 % of GpH7-A5/GpH7-B3/GpL16-k0 (=100) | GpH7-A5/GpH7-B3 variant P238_19Q/GpL16-k0 (antibody, human IgG1, kappa, Heterodimerized anti-glypican-3 IgG1; the substitution stands in the GpH7-B3 chain only; also called He Ab) heavy 1: not shown heavy 2: not shown light: DIVMTQSPLSLPVTPGEPASISCQASESLVHSNRNTYLHWYLQKPGQSPQLLIYKVSNRFSGVPDRFSGSGSGTDFTLKISRVEAEDVGVYYCSQNTHVPPTFGQGTKVEIERTVAAPSVFIFPPSDEQLKSGTASVVCLLNNFYPREAKVQWKVDNALQSGNSQESVTEQDSKDSTYSLSSTLTLSKADYEKHKVYACEVTHQGLSSPVTKSFNRGEC |
| 0.66 | 10.1 % of control | 15.2 % of control | – | – | – | GpH7-A5/GpH7-B3 variant V266_10E/GpL16-k0 (antibody, human IgG1, kappa, Heterodimerized IgG1 (He Ab); mutation only in the GpH7-B3 chain; also called He Ab V266E) heavy 1: not shown heavy 2: not shown light: DIVMTQSPLSLPVTPGEPASISCQASESLVHSNRNTYLHWYLQKPGQSPQLLIYKVSNRFSGVPDRFSGSGSGTDFTLKISRVEAEDVGVYYCSQNTHVPPTFGQGTKVEIERTVAAPSVFIFPPSDEQLKSGTASVVCLLNNFYPREAKVQWKVDNALQSGNSQESVTEQDSKDSTYSLSSTLTLSKADYEKHKVYACEVTHQGLSSPVTKSFNRGEC |
| – | – | – | 0.27 | 30.7 % of GpH7-A5/GpH7-B3/GpL16-k0 (=100) | 115 % of GpH7-A5/GpH7-B3/GpL16-k0 (=100) | GpH7-A5/GpH7-B3 variant P238_16H/GpL16-k0 (antibody, human IgG1, kappa, Heterodimerized anti-glypican-3 IgG1; the substitution stands in the GpH7-B3 chain only; also called He Ab) heavy 1: not shown heavy 2: not shown light: DIVMTQSPLSLPVTPGEPASISCQASESLVHSNRNTYLHWYLQKPGQSPQLLIYKVSNRFSGVPDRFSGSGSGTDFTLKISRVEAEDVGVYYCSQNTHVPPTFGQGTKVEIERTVAAPSVFIFPPSDEQLKSGTASVVCLLNNFYPREAKVQWKVDNALQSGNSQESVTEQDSKDSTYSLSSTLTLSKADYEKHKVYACEVTHQGLSSPVTKSFNRGEC |
| -1.05 | 1.1 % of control | -1.1 % of control | – | – | – | GpH7-A5/GpH7-B3 variant V266_12R/GpL16-k0 (antibody, human IgG1, kappa, Heterodimerized IgG1 (He Ab); mutation only in the GpH7-B3 chain; also called He Ab V266R) heavy 1: not shown heavy 2: not shown light: DIVMTQSPLSLPVTPGEPASISCQASESLVHSNRNTYLHWYLQKPGQSPQLLIYKVSNRFSGVPDRFSGSGSGTDFTLKISRVEAEDVGVYYCSQNTHVPPTFGQGTKVEIERTVAAPSVFIFPPSDEQLKSGTASVVCLLNNFYPREAKVQWKVDNALQSGNSQESVTEQDSKDSTYSLSSTLTLSKADYEKHKVYACEVTHQGLSSPVTKSFNRGEC |
